From patent US7070776
One block for each substance: values may come before it.

Columns and labels:
CD28 receptor (human) = CD28 receptor (human) (UniProt P10747); test: cell-based or functional assay
B7 antigen (human) [1] = biological target: B7 antigen (human) (UniProt P33681); test: direct immunofluorescence flow cytometry, 5E1 cells
B7 antigen (human) [2] = biological target: B7 antigen (human) (UniProt P33681); test: direct immunofluorescence flow cytometry, Raji Burkitt's lymphoma cells, no unlabeled BB-1
B7 antigen (human) [3] = biological target: B7 antigen (human) (UniProt P33681); test: direct immunofluorescence flow cytometry, Raji cells, after preincubation with unlabeled (cold) BB-1
B7 antigen (human) [4] = biological target: B7 antigen (human) (UniProt P33681); test: direct immunofluorescence flow cytometry, T51 cells, after preincubation with unlabeled (cold) BB-1
B7 antigen (human) [5] = biological target: B7 antigen (human) (UniProt P33681); test: direct immunofluorescence flow cytometry, Jijoye cells
B7 antigen (human) [6] = biological target: B7 antigen (human) (UniProt P33681); test: direct immunofluorescence flow cytometry, Daudi cells, after preincubation with unlabeled (cold) BB-1
B7 antigen (human) [7] = biological target: B7 antigen (human) (UniProt P33681); test: direct immunofluorescence flow cytometry, Jijoye Burkitt's lymphoma cells, no unlabeled BB-1
B7 antigen (human) [8] = biological target: B7 antigen (human) (UniProt P33681); test: direct immunofluorescence flow cytometry, T51 B-lymphoblastoid cells, no unlabeled BB-1
B7 antigen (human) [9] = biological target: B7 antigen (human) (UniProt P33681); test: direct immunofluorescence flow cytometry, Daudi cells
B7 antigen (human) [10] = biological target: B7 antigen (human) (UniProt P33681); test: direct immunofluorescence flow cytometry, Daudi Burkitt's lymphoma cells, no unlabeled BB-1
B7 antigen (human) [11] = biological target: B7 antigen (human) (UniProt P33681); test: direct immunofluorescence flow cytometry, Raji cells
B7 antigen (human) [12] = biological target: B7 antigen (human) (UniProt P33681); test: direct immunofluorescence flow cytometry, 5E1 B-lymphoblastoid cells, no unlabeled BB-1
B7 antigen (human) [13] = biological target: B7 antigen (human) (UniProt P33681); test: direct immunofluorescence flow cytometry, T51 cells
B7 antigen (human) [14] = biological target: B7 antigen (human) (UniProt P33681); test: cell-based or functional assay
B7 antigen (human) [15] = biological target: B7 antigen (human) (UniProt P33681); test: direct immunofluorescence flow cytometry, Jijoye cells, after preincubation with unlabeled (cold) BB-1
B7 antigen (human) [16] = biological target: B7 antigen (human) (UniProt P33681); test: direct immunofluorescence flow cytometry, 5E1 cells, after preincubation with unlabeled (cold) BB-1

Sequence of B7 antigen (human) (P33681 35-288): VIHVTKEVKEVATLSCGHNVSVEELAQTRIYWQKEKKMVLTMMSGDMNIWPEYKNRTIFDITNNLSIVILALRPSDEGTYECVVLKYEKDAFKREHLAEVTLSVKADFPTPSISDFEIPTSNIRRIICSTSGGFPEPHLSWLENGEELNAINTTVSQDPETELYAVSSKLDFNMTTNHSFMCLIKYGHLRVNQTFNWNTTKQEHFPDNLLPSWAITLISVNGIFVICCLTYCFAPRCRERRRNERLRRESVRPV

[^3H]-T incorporation of PHA blasts stimulated with B7+ CHO (40:1), 9.3 Fab at 10 µg/ml (CD28 receptor (human)): 132000 cpm
Substance: mAb 9.3 (Fab fragments)

SPECIFIC BINDING (mean fluorescence, -cold minus +cold) (B7 antigen (human) [1]): 10.6 linear units | mean fluorescence (linear units), FITC-BB-1 -COLD (B7 antigen (human) [2]): 7.1 linear units | mean fluorescence (linear units), FITC-BB-1 +COLD (B7 antigen (human) [3]): 2.8 linear units | mean fluorescence (linear units), FITC-BB-1 +COLD (B7 antigen (human) [4]): 3 linear units | SPECIFIC BINDING (mean fluorescence, -cold minus +cold) (B7 antigen (human) [5]): 15 linear units | mean fluorescence (linear units), FITC-BB-1 +COLD (B7 antigen (human) [6]): 2.8 linear units | mean fluorescence (linear units), FITC-BB-1 -COLD (B7 antigen (human) [7]): 17.8 linear units | mean fluorescence (linear units), FITC-BB-1 -COLD (B7 antigen (human) [8]): 16.4 linear units | SPECIFIC BINDING (mean fluorescence, -cold minus +cold) (B7 antigen (human) [9]): 3.6 linear units | mean fluorescence (linear units), FITC-BB-1 -COLD (B7 antigen (human) [10]): 6.4 linear units | SPECIFIC BINDING (mean fluorescence, -cold minus +cold) (B7 antigen (human) [11]): 4.3 linear units | mean fluorescence (linear units), FITC-BB-1 -COLD (B7 antigen (human) [12]): 13 linear units | SPECIFIC BINDING (mean fluorescence, -cold minus +cold) (B7 antigen (human) [13]): 13.4 linear units | [^3H]-T incorporation of PHA blasts stimulated with B7+ CHO (40:1), BB-1 at 10 µg/ml (B7 antigen (human) [14]): 98300 cpm | blocking of adhesion of Jijoye cells to CD28+ CHO cells, 10 mM EDTA (B7 antigen (human) [14]): 60% | mean fluorescence (linear units), FITC-BB-1 +COLD (B7 antigen (human) [15]): 2.8 linear units | mean fluorescence (linear units), FITC-BB-1 +COLD (B7 antigen (human) [16]): 2.4 linear units
Substance: mAb BB-1 (anti-B7) (antibody)

[^3H]-T incorporation of PBL, +Anti-CD3, mAb 9.3 (immob.), Exp. 1 (CD28 receptor (human)): 137000 cpm | [^3H]-T incorporation of PBL, +Anti-CD3, mAb 9.3 (soln.), Exp. 1 (CD28 receptor (human)): 156000 cpm | [^3H]-T incorporation of PBL, +Anti-CD3, mAb 9.3 (soln.), Exp. 2 (CD28 receptor (human)): 75800 cpm | [^3H]-T incorporation of PBL, -Anti-CD3, mAb 9.3 (immob.), Exp. 1 (CD28 receptor (human)): 100 cpm | [^3H]-T incorporation of PBL, -Anti-CD3, mAb 9.3 (soln.), Exp. 1 (CD28 receptor (human)): 300 cpm | [^3H]-T incorporation of PBL, -Anti-CD3, mAb 9.3 (soln.), Exp. 2 (CD28 receptor (human)): 400 cpm | blocking of adhesion of B7 transfected COS cells to CD28+ CHO cells, EDTA omitted (CD28 receptor (human)): 40% | half-maximal inhibition of CD28-mediated adhesion (PM cells to CD28+ CHO) (CD28 receptor (human)): 10 nM | reduction of T51 cell adhesion to CD28+ CHO cells by mAb 9.3 alone (no EDTA) (CD28 receptor (human)): 62% | reduction of T51 cell adhesion to CD28+ CHO cells by mAb 9.3 plus EDTA (CD28 receptor (human)): 93%
Substance: monoclonal antibody (mAb) 9.3 (anti-CD28)
